Test results from US20030021776, “Regulation of angiogenesis with zinc finger proteins” (Sangamo BioSciences, Inc., published 2003).
Residue numbers refer to the chain shown, from its start.

Columns and labels:
[1] = target: T1, VOP 32B-VP16 (VZ+434b-VP16) (synthetic); experiment: cell_activity; endogenous VEGF-A in HEK 293
T1 chain: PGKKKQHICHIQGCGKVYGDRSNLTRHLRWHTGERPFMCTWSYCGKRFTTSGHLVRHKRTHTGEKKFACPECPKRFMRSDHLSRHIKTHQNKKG

[2] = target: T2, VOP 32A-6 (VZ+434a) (synthetic); experiment: EMSA; settings: tags: MBP fusion (pMal-c2), SP1 backbone
T2 chain: T1 chain with T50M, G52H, V55S

[3] = target: T3, VOP 32B-7 (VZ+434b, mVZ+426) (synthetic); experiment: EMSA; settings: tags: MBP fusion (pMal-c2), SP1 backbone
T3 chain: T1 chain

[4] = target: T4, SP1 zinc finger domain (UniProt P08047 SEQ:1-94); experiment: EMSA; 100 mM KCl, 1 mM MgCl2, Zn
T4 sequence (P08047 620-713): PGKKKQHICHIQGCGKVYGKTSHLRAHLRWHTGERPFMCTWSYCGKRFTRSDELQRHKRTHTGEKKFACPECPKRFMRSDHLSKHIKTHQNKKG
Description: (§1) Binding studies. Binding studies were performed essentially as described (Liu, et al. (2001) J. Biol. Chem. 276: 11,323-11,334), except that the buffer was modified to the following final composition: 10 mM Tris, 100 mM KCl, 1 mM MgCl₂, 10 mM DTT, 0.01 mM ZnCl₂, 10% glycerol, 200 μg/ml bovine serum albumin, 0.02% IGEPAL.
(§2) Genes for our ZFPs were assembled (see experimental procedures) and each protein was expressed and purified essentially as described (Liu et. al., 2001, supra; and Zhang et. al., supra). We then characterized the DNA-binding affinity of each ZFP using a gel shift assay. Procedures for these studies were essentially identical to those described previously (Liu et. al., 2001, supra; and Zhang et. al., supra) except for the use of a modified binding buffer.

[5] = target: T4, SP1 zinc finger domain; experiment: EMSA; 170 mM KCl, 1.7 mM MgCl2, Zn
Description: (§3) Binding studies were performed essentially as described (Zhang et al., supra; WO 00/41566; and WO 00/42219) except that the binding reactions contained 10 pM of labeled target site and the buffer composition was as follows: 17 mM Tris, 170 mM KCl, 1.7 mM MgCl2, 3.5 mM DTT, 0.01-0.033 mM ZnCl2, 15% glycerol, 300 μg/ml bovine serum albumin, 0.03% IGEPAL. In addition, ZFP concentrations for these studies were determined directly by measuring the DNA-binding activity of each ZFP preparation using conditions under which binding is essentially stoichiometric (ZFP and target site concentrations of >100 nM).

[6] = target: T5, VEGF 1 (VZ-8) (synthetic, UniProt P08047); experiment: EMSA; 170 mM KCl, 1.7 mM MgCl2, Zn; settings: tags: MBP fusion (pMal-c2), SP1 backbone
T5 chain: T1 chain with D20T, R21T, T25R, T50R, G52S, H53N, V55Q
Description: as §3

[7] = target: T6, VZ-950 (synthetic); experiment: EMSA; 170 mM KCl, 1.7 mM MgCl2, Zn; settings: tags: MBP fusion (pMal-c2), SP1 backbone
T6 chain: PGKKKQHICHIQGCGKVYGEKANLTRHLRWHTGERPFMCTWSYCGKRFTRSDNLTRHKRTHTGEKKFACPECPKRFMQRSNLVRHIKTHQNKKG
Description: as §3

[8] = target: T7, BVO 13A (synthetic); experiment: EMSA; settings: tags: MBP fusion (pMal-c2), SP1 backbone
T7 chain: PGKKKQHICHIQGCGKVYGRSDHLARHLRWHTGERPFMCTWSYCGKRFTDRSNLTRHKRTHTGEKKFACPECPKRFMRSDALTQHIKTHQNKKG

[9] = target: T8, MX1E (synthetic); experiment: EMSA; settings: tags: MBP fusion (pMal-c2), SP1 backbone
T8 chain: T7 chain with T83S, Q84A

[10] = target: VEGF 1B (synthetic, UniProt P08047); experiment: EMSA; settings: tags: MBP fusion (pMal-c2), SP1 backbone
Chain of VEGF 1B (P08047 other isoform, or with tags, fused parts or gaps): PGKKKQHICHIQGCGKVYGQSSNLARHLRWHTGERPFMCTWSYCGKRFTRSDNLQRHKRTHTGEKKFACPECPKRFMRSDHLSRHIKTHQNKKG

[11] = target: VOP 30A-4 (VZ+42/+530, mVZ+509) (synthetic); experiment: EMSA; upper bound; 10 mM Tris, 100 mM KCl, 1 mM MgCl2, 0.01 mM ZnCl2; settings: tags: MBP fusion (pMal-c2), SP1 backbone
Chain of VOP 30A-4 (VZ+42/+530, mVZ+509) (synthetic) (chain, as listed by the source): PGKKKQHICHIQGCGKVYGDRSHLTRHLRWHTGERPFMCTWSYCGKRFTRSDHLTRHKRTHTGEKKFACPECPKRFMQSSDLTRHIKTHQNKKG
Description: (§4) A three-fold dilution series of each protein was tested for binding to its DNA target (SEQ ID NOS:207, 144, 240, and 141, respectively), with the highest concentration in lane 10 and the lowest concentration in lane 2. Lane 1 contains probe alone.
as §1, §2

[12] = target: VOP 30A-4 (VZ+42/+530, mVZ+509) (synthetic); experiment: EMSA; settings: tags: MBP fusion (pMal-c2), SP1 backbone
[13] = target: T9, VOP 29A-3 (synthetic); experiment: EMSA; settings: tags: MBP fusion (pMal-c2), SP1 backbone
T9 chain: T7 chain with A25T, R26T, D50Q, R51S, N53D, A81N, Q84R

[14] = target: VOP 35A-10 (VZ+892) (synthetic); experiment: EMSA; 170 mM KCl, 1.7 mM MgCl2, Zn; settings: tags: MBP fusion (pMal-c2), SP1 backbone
Chain of VOP 35A-10 (VZ+892) (synthetic) (chain, as listed by the source): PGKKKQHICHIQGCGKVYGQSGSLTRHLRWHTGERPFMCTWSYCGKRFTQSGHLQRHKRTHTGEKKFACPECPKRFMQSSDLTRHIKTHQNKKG
Description: as §3

[15] = target: T10, HUM 19A (synthetic); experiment: EMSA; settings: tags: MBP fusion (pMal-c2), SP1 backbone
T10 chain: T1 chain with T50Q, H53D, V55T, S83T, R84T

[16] = target: T3, VOP 32B-7 (VZ+434b, mVZ+426); experiment: EMSA; upper bound; 10 mM Tris, 100 mM KCl, 1 mM MgCl2, 0.01 mM ZnCl2; settings: tags: MBP fusion (pMal-c2), SP1 backbone
Description: as §4, §1, §2

[17] = target: T3, VOP 32B-7 (VZ+434b, mVZ+426); experiment: EMSA; 170 mM KCl, 1.7 mM MgCl2, Zn; settings: tags: MBP fusion (pMal-c2), SP1 backbone
Description: as §3

[18] = target: VOP 28A-2 (synthetic); experiment: EMSA; settings: tags: MBP fusion (pMal-c2), SP1 backbone
Chain of VOP 28A-2 (synthetic) (chain, as listed by the source): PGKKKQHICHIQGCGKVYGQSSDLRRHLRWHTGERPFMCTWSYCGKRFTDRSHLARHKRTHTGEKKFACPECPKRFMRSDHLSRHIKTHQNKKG

[19] = target: T11, PDF 5A (VZ+590) (synthetic); experiment: EMSA; 170 mM KCl, 1.7 mM MgCl2, Zn; settings: tags: MBP fusion (pMal-c2), SP1 backbone
T11 chain: T1 chain with N23S, T50R, G52D, V55S, R78Q, D80G, H81S, S83T
Description: as §3

[20] = target: MTS 5A (synthetic, UniProt P08047); experiment: EMSA; settings: tags: MBP fusion (pMal-c2), SP1 backbone
Chain of MTS 5A (P08047 other isoform, or with tags, fused parts or gaps): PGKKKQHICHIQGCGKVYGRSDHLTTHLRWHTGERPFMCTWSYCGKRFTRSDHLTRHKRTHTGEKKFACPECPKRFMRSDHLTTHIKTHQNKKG

[21] = target: VG 8A (VZ-475) (synthetic); experiment: EMSA; 170 mM KCl, 1.7 mM MgCl2, Zn; settings: tags: MBP fusion (pMal-c2), SP1 backbone
Chain of VG 8A (VZ-475) (synthetic) (chain, as listed by the source): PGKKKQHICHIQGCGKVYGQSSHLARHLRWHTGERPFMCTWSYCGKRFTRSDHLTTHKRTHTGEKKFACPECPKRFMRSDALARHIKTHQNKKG
Description: as §3

[22] = target: T12, HUM 17A (VZ+472) (synthetic); experiment: EMSA; 17 mM Tris, 170 mM KCl, 1.7 mM MgCl2, Zn; settings: tags: MBP fusion (pMal-c2), SP1 backbone
T12 chain: T7 chain with H23N, D50R, R51S, S52D, N53H, T55S, A81N
Description: as §3

[23] = target: USX 3A (synthetic); experiment: EMSA; settings: tags: MBP fusion (pMal-c2), SP1 backbone
[24] = target: VOP 35A-10 (VZ+892) (synthetic); experiment: EMSA; Table 6 gives 0.24 nM for same helices (VZ+892); settings: tags: MBP fusion (pMal-c2), SP1 backbone
[25] = target: ZEN-7A 1 (VZ-573) (synthetic, UniProt P08047); experiment: EMSA; 170 mM KCl, 1.7 mM MgCl2, Zn; settings: tags: MBP fusion (pMal-c2), SP1 backbone
Chain of ZEN-7A 1 (VZ-573) (P08047 other isoform, or with tags, fused parts or gaps): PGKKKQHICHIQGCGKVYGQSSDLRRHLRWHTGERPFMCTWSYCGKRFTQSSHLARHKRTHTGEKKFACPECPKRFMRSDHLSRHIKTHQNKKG
Description: as §3

B1: VOP 32A/32B target (dsDNA)
DNA 1: GGGGGTGAC
DNA 2: GTCACCCCC
[1]
  activity: 8 fold
[2]
  Kd: < 0.02 nM
[3]
  Kd: < 0.02 nM

B2: SP1 target (dsDNA)
DNA 1: GGGGCGGGGG
DNA 2: CCCCCGCCCC
[4]
  Kd: 0.053 nM
[5]
  Kd: 0.25 nM

B3: VZ-8 target (dsDNA)
DNA 1: GGGGAGGATC
DNA 2: GATCCTCCCC
[6]
  Kd: 2.83 nM

B4: VZ-950 target (dsDNA)
DNA 1: GAAGAGGACC
DNA 2: GGTCCTCTTC
[7]
  Kd: 0.18 nM

B5: BVO 13A / MX1E target (dsDNA)
DNA 1: ATGGACGGG
DNA 2: CCCGTCCAT
[8]
  Kd: < 0.02 nM
[9]
  Kd: 3.4 nM

B6: VEGF 1B target (dsDNA)
DNA 1: GGGGAGGAT
DNA 2: ATCCTCCCC
[10]
  Kd: 2 nM

B7: mVZ+509 target (dsDNA)
DNA 1: GCTGGGGGCG
DNA 2: CGCCCCCAGC
[11]
  Kd: < 0.01 nM

B8: VOP 30A target (dsDNA)
DNA 1: GCTGGGGGC
DNA 2: GCCCCCAGC
[12]
  Kd: < 0.02 nM

B9: VOP 29A-3 target (dsDNA)
DNA 1: GAGGCTTGG
DNA 2: CCAAGCCTC
[13]
  Kd: < 0.02 nM

B10: VZ+892 target (dsDNA)
DNA 1: GCTGGAGCAC
DNA 2: GTGCTCCAGC
[14]
  Kd: 0.24 nM

B11: HUM 19A target (dsDNA)
DNA 1: TGGGCAGAC
DNA 2: GTCTGCCCA
[15]
  Kd: 0.02 nM

B12: VZ+434 / mVZ+426 target (dsDNA)
DNA 1: GGGGGTGACC
DNA 2: GGTCACCCCC
[16]
  Kd: < 0.01 nM
[17]
  Kd: < 0.02 nM

B13: VOP 28A-2 target (dsDNA)
DNA 1: GGGGGCGCT
DNA 2: AGCGCCCCC
[18]
  Kd: < 0.02 nM

B14: VZ+590 target (dsDNA)
DNA 1: GCAGGGGCCG
DNA 2: CGGCCCCTGC
[19]
  Kd: 0.23 nM

B15: MTS 5A target (dsDNA)
DNA 1: TGGGGGTGG
DNA 2: CCACCCCCA
[20]
  Kd: 0.07 nM

B16: VZ-475 target (dsDNA)
DNA 1: GTGTGGGGTT
DNA 2: AACCCCACAC
[21]
  Kd: 0.35 nM

B17: VZ+472 target (dsDNA)
DNA 1: AAGGGGGAGG
DNA 2: CCTCCCCCTT
[22]
  Kd: 0.006 nM

B18: USX 3A target (dsDNA)
DNA 1: GCCGGGGAG
DNA 2: CTCCCCGGC
[23]
  Kd: 0.06 nM

B19: VOP 35A-10 target (dsDNA)
DNA 1: GCTGGAGCA
DNA 2: TGCTCCAGC
[24]
  Kd: < 0.02 nM

B20: VZ-573 target (dsDNA)
DNA 1: GGGGGCGCTC
DNA 2: GAGCGCCCCC
[25]
  Kd: 0.63 nM
